Measured values published in the supplement of paper PMC7125110.
± gives the standard error. For part of these data: Variants at the floor of the assay were thinned out.

B1: glmS ribozyme (parent)
chain: AUAAAAGCGCCAGAACUACAGAAAUGUAGUUGACGAGGAGGAGGUUUAUCGAAUUUUCGGCGGAUGCCUCCAAA

Assays:
Conditions in all cases: with glucosamine-6-phosphate
glucosamine-6-phosphate [1] = variants of: B1; test: kcat; higher = faster cleavage; RNA array
Outline: (§1)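 Tiles bearing barcoded ribozyme variants, transcribed in situ by E. coli RNA polymerase on sequenced MiSeq chips, were imaged over ~14 h at 37 °C using a hybridised Cy3 probe. Glucosamine-6-phosphate was supplied at 40 μM to 10 mM in HEPES/KCl/Mg(OAc)2 buffer. kobs came from one- or two-exponential decay fits to normalised per-tile medians, and weighted Michaelis–Menten fits then provided kcat and KM.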

glucosamine-6-phosphate [2] = variants of: B1; test: KM; higher = weaker cofactor use; RNA array
Outline: as §1

glucosamine-6-phosphate [3] = variants of: B1; test: self-cleavage kobs at 40 uM GlcN6P; higher = faster cleavage; RNA array
Outline: as §1

glucosamine-6-phosphate [4] = variants of: B1; test: self-cleavage kobs at 160 uM GlcN6P; higher = faster cleavage; RNA array
Outline: as §1

glucosamine-6-phosphate [5] = variants of: B1; test: self-cleavage kobs at 640 uM GlcN6P; higher = faster cleavage; RNA array
Outline: as §1

glucosamine-6-phosphate [6] = variants of: B1; test: self-cleavage kobs at 2500 uM GlcN6P; higher = faster cleavage; RNA array
Outline: as §1

glucosamine-6-phosphate [7] = variants of: B1; test: self-cleavage kobs at 10000 uM GlcN6P; higher = faster cleavage; RNA array
Outline: as §1

| Variant | kcat (glucosamine-6-phosphate [1]) [s⁻¹] | KM (glucosamine-6-phosphate [2]) [µM] | self-cleavage kobs at 40 uM GlcN6P (glucosamine-6-phosphate [3]) [s⁻¹] | self-cleavage kobs at 160 uM GlcN6P (glucosamine-6-phosphate [4]) [s⁻¹] | self-cleavage kobs at 640 uM GlcN6P (glucosamine-6-phosphate [5]) [s⁻¹] | self-cleavage kobs at 2500 uM GlcN6P (glucosamine-6-phosphate [6]) [s⁻¹] | self-cleavage kobs at 10000 uM GlcN6P (glucosamine-6-phosphate [7]) [s⁻¹] |
| --- | --- | --- | --- | --- | --- | --- | --- |
| A12C U30C | 0.00413 ± 0.0012 | 3850 ± 1500 | 6.11e-05 ± 7.7e-06 | 0.000121 ± 2e-05 | 0.000707 ± 9.2e-05 | 0.00145 ± 0.0002 | 0.00306 ± 0.00028 |
| C11U C70G C71U | 5.18e-05 ± 1e-05 | – | – | – | 7.99e-05 ± 2.7e-05 | – | 5.18e-05 ± 1.3e-05 |
| C11U A33U | 7.95e-05 ± 1.1e-06 | 1500 ± 99 | – | – | 2.29e-05 ± 1.1e-05 | 5.06e-05 ± 9.1e-06 | 6.9e-05 ± 5.3e-06 |
| C11U A33C | 1.8e-05 ± 2.7e-06 | 8710 ± 2600 | – | – | – | – | – |
| A12U A52C A53U C70G | 1.09e-05 ± 3.5e-06 | – | – | – | – | – | – |
| G13A U45A | 0.00257 ± 0.00041 | 6910 ± 1400 | – | 5.26e-05 ± 9.7e-06 | 0.000237 ± 3.3e-05 | 0.000649 ± 0.00012 | 0.00152 ± 0.00022 |
| C11U C71U | 0.00111 ± 0.0002 | 1030 ± 320 | 0.000116 ± 4.3e-05 | 0.000143 ± 2.6e-05 | 0.000418 ± 7.1e-05 | 0.000796 ± 0.00014 | 0.00102 ± 0.0002 |
| G13A G29C | 0.00011 ± 4.9e-06 | 1990 ± 240 | – | – | – | 5.98e-05 ± 1.3e-05 | 9.3e-05 ± 1.7e-05 |
| G13C A53C | 2.72e-05 ± 1.4e-06 | 802 ± 260 | < 1e-05 | < 1e-05 | – | – | 2.49e-05 ± 1.2e-05 |
| C11U A14C C70U | 0.000322 ± 0.00016 | – | – | – | 0.000221 ± 4.6e-05 | 0.000599 ± 0.00016 | 0.000224 ± 6.8e-05 |
| A12G G59C | 6.79e-05 ± 1.4e-05 | – | < 1e-05 | – | – | 7.69e-05 ± 2.4e-05 | 5.86e-05 ± 1.4e-05 |
| A12G G59U | 1e-05 ± 1.9e-06 | – | – | – | – | – | – |
| G13A C70A | 2.43e-05 ± 6.3e-06 | – | – | – | – | – | – |
| G13A C70G | 3.04e-05 ± 1.3e-05 | – | – | – | 5.03e-05 ± 1.9e-05 | 5.41e-05 ± 1.5e-05 | – |
| G13A G40U | 8.11e-05 ± 1e-05 | 2810 ± 990 | < 1e-05 | – | – | 4.21e-05 ± 8.5e-06 | 6.21e-05 ± 8.8e-06 |
| A12G C71G | 0.000425 ± 2.2e-05 | 4400 ± 370 | – | – | 5.45e-05 ± 6.3e-06 | 0.00015 ± 1.6e-05 | 0.000298 ± 3.1e-05 |
| G13A U54C | 0.000629 ± 0.00013 | 2490 ± 920 | – | 2.7e-05 ± 1e-05 | 0.000134 ± 2.4e-05 | 0.000405 ± 6.2e-05 | 0.000458 ± 7.1e-05 |
| A12C G43A | 6.99e-05 ± 1.2e-05 | 1870 ± 800 | – | – | – | 3.76e-05 ± 8.6e-06 | 6.33e-05 ± 1.9e-05 |
| A12C C58G | 0.0002 ± 2.6e-05 | 1730 ± 640 | – | – | 6.55e-05 ± 1.8e-05 | 0.000106 ± 1.8e-05 | 0.000177 ± 2.2e-05 |
